Test [1] addresses T1, human PDGF alpha-receptor (human, UniProt P16234 24-1089).
T1 construct: whole, on cells; also called PDGF receptor alpha; PDGFR-alpha
In words: self-displacement standard curve, unlabeled PDGF-BB against 125I-PDGF-BB on PAE-1 cells expressing PDGF alpha-receptor. The procedure: (§1) Next, full length and truncated PDGF-C were tested for their capacity to bind to human PDGF receptors alpha and beta by analyzing their abilities to compete with PDGF-BB for binding to PDGF receptors. The binding experiments were performed on porcine aortic endothelial-1 (PAE-1) cells stably expressing the human PDGF receptors alpha and beta (Eriksson et al., EMBO J, 1992, 11, 543-550). Binding experiments were performed essentially as in Heldin et al. (EMBO J, 1988, 7:1387-1393). Different concentrations of human full-length and truncated PDGF-C, or human PDGF-BB were mixed with 5 ng/ml of ¹²⁵I-PDGF-BB in binding buffer (PBS containing 1 mg/ml of bovine serum albumin). Aliquots were incubated with the receptor expressing PAE-1 cells plated in 24-well culture dishes on ice for 90 minutes. After three washes with binding buffer, cell-bound ¹²⁵I -PDGF-BB was extracted by lysis of cells in 20 mM Tris-HCl, pH 7.5, 10% glycerol, 1% Triton X-100. The amount of cell bound radioactivity was determined in a gamma-counter. A standard curve for the binding of ¹²⁵I-labeled PDGF BB homodimers to PAE-1 cells expressing PDGF alpha-receptor is shown in FIG. 18. An increasing excess of the unlabeled protein added to the incubations competed efficiently with cell association of the radiolabeled tracer.

Test [2] addresses T1, human PDGF alpha-receptor. In words: competition with 125I-PDGF-BB on PAE-1 cells expressing human PDGF alpha-receptor. The procedure: as §1
The target in a further test is T2, human PDGF beta-receptor (human, UniProt P09619 33-1106).
T2 construct: whole, on cells; also called PDGF receptor beta; PDGFR-beta
In words: direct binding of 125I-labeled truncated PDGF-C to PAE-1 cells expressing PDGF beta receptor. The procedure:
To assess the interactions between truncated PDGF-C and the PDGF alpha and beta receptors, truncated PDGF-C was tested for its capacity to bind to porcine aortic endothelial-1 (PAE-1) cells expressing PDGF alpha or beta receptors, respectively (Eriksson et al., EMBO J, 1992 11:543-550). The binding experiments were performed essentially as described in Heldin et al. (EMBO J, 1988 7:1387-1393). Five micrograms of truncated PDGF-C protein in ten microliters of sodium borate buffer was radiolabeled using the Bolton-Hunter reagent (Amersham) to a specific activity of 4×10⁵ cpm/ng. Different concentrations of radiolabeled truncated PDGF-C, with or without added unlabeled protein, in binding buffer (PBS containing 1 mg/ml of bovine serum albumin) was added to the receptor expressing PAE-1 cells plated in 24-well culture dishes on ice for 90 minutes. After three washes with binding buffer, cell-bound ¹²⁵I-labeled PDGF-C was extracted by lysis of cells in 20 mM Tris-HCl, pH 7.5, 10% glycerol, 1% Triton X-100. The amount of cell-bound radioactivity was determined in a gamma-counter. Non-specific binding was estimated by including a 100-fold molar excess of truncated PDGF-C in some experiments. […] The binding was specific as radiolabeled PDGF-C was quantitatively displaced by a 100-fold molar excess of unlabeled protein.

A further test addresses T3, VEGFR-2-Ig (human, UniProt P35968 20-764).
T3 construct: extracellular domain; Transiently expressed in 293 EBNA cells and captured on protein A-Sepharose; also called soluble Ig-fusion protein containing the extracellular domain of human VEGFR-2; not shown: Ig part of the fusion
Briefly: pull-down of 35S-labelled conditioned medium with receptor-Ig on protein A-Sepharose, SDS-PAGE, phosphorimager. The protocol:
(§2) To assess the interactions between full length and truncated PDGF-C and the VEGF receptors, full length and truncated PDGF-C were tested for their capacity to bind to soluble Ig-fusion proteins containing the extracellular domains of human VEGFR-1, VEGFR-2 and VEGFR-3 (Olofsson et al., Proc. Natl. Acad. Sci. USA, 1998 95:11709-11714). The fusion proteins, designated VEGFR-1-Ig, VEGFR-2-Ig and VEGFR-3-Ig, were transiently expressed in human 293 EBNA cells. All Ig fusion proteins were human VEGFRs. Cells were incubated for 24 hours after transfection, washed with Dulbecco's Modified Eagle Medium (DMEM) containing 0.2% bovine serum albumin and starved for 24 hours. The fusion proteins were then precipitated from the clarified conditioned medium using protein A-Sepharose beads (Pharmacia). The beads were combined with 100 microliters of 10× binding buffer (5% bovine serum albumin, 0.2% Tween 20 and 10 μg/ml heparin) and 900 microliter of conditioned medium from 293 cells that had been transfected with mammalian expression plasmids encoding full length or truncated PDGF-C or control vector, then metabolically labeled with ³⁵S-cysteine and methionine (Promix, Amersham) for 4 to 6 hours. After 2.5 hours, at room temperature, the Sepharose beads were washed 3 times with binding buffer at 4° C., once with phosphate buffered saline and boiled in SDS-PAGE buffer. Labeled proteins that were bound to the Ig-fusion proteins were analyzed by SDS-PAGE under reducing conditions. Radiolabeled proteins were detected using a phosphorimager analyzer.

Another test concerns the target T4, VEGFR-3-Ig (human, UniProt P35916 25-775).
T4 construct: extracellular domain; Transiently expressed in 293 EBNA cells and captured on protein A-Sepharose; also called soluble Ig-fusion protein containing the extracellular domain of human VEGFR-3; not shown: Ig part of the fusion
T4 sequence (looked up): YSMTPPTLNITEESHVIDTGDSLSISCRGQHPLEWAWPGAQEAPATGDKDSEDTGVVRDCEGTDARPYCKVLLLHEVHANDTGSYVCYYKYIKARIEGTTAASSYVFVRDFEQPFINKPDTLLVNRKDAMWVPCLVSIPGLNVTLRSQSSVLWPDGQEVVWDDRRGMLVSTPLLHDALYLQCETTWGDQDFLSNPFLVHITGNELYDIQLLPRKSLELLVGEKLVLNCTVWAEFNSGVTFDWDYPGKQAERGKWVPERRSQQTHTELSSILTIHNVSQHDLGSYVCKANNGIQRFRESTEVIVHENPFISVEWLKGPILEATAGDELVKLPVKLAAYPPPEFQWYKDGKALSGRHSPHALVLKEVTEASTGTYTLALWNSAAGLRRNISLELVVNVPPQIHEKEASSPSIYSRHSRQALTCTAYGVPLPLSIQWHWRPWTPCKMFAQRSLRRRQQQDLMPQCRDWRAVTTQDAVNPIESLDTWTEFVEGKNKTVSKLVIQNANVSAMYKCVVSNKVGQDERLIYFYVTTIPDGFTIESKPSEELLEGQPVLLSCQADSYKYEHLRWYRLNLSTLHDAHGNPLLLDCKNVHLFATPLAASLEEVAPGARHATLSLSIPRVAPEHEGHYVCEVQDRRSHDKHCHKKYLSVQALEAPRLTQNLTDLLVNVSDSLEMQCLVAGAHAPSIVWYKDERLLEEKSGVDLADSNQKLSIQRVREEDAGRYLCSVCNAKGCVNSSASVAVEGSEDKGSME
The test is described as above. The procedure:
as §2

Another test has as its target T5, VEGFR-1-Ig (human, UniProt P17948 27-758).
T5 construct: extracellular domain; Transiently expressed in 293 EBNA cells and captured on protein A-Sepharose; The construct is cited from Olofsson et al. 1998; also called soluble Ig-fusion protein containing the extracellular domain of human VEGFR-1; not shown: Ig part of the fusion
The test is described as above. The procedure: as §2

Consider three molecules from US20040053837A1 (LUDWIG INSTITUTE FOR CANCER RESEARCH, published 2004).

T1 sequence (P16234 24-1089): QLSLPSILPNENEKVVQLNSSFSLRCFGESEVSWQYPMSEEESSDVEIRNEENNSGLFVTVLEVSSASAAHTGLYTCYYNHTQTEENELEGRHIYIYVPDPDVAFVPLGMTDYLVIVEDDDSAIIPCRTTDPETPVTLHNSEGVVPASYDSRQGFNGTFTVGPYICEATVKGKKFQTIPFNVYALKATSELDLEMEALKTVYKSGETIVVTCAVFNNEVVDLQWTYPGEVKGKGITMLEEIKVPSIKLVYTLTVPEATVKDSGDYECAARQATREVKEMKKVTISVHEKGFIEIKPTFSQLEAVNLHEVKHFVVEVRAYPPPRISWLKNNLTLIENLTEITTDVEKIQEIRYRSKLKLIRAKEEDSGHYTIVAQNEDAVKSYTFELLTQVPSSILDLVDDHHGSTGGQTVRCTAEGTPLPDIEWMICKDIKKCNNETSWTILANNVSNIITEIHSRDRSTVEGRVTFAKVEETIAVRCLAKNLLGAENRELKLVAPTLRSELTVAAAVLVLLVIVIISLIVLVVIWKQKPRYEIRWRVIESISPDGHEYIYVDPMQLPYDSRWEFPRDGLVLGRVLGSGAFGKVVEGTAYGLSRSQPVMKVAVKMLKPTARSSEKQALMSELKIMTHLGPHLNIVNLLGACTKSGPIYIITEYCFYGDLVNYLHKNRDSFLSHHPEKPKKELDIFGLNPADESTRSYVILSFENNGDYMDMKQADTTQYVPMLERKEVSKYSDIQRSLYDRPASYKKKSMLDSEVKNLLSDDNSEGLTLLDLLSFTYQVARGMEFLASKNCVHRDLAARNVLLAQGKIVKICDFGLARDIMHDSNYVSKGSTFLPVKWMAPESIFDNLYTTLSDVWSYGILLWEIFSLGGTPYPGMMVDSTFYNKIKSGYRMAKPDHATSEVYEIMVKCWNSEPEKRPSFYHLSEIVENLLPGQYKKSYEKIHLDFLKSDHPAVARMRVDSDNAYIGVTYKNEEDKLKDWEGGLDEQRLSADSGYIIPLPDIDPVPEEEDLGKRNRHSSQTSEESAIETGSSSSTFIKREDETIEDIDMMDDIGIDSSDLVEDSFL
T3 sequence (P35968 20-764): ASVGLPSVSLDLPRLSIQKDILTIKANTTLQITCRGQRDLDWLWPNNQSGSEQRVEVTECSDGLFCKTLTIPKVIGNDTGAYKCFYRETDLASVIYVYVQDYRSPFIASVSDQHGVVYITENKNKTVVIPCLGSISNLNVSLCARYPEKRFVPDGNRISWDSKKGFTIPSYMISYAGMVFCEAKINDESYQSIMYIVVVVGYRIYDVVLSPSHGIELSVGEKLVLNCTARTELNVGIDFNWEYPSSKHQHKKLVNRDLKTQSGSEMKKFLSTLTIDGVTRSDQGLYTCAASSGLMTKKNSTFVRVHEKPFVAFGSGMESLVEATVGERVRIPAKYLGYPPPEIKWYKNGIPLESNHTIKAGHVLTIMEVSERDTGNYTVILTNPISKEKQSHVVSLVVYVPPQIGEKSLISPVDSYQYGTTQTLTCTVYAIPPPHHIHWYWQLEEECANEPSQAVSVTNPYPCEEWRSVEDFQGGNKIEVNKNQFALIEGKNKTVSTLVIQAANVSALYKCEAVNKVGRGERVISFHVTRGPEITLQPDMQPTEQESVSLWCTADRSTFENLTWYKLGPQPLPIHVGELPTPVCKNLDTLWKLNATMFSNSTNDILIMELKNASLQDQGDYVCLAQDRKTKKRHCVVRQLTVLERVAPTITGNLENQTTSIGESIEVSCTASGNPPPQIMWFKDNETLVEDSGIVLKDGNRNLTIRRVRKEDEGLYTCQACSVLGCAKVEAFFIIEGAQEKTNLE
T2 sequence (P09619 33-1106): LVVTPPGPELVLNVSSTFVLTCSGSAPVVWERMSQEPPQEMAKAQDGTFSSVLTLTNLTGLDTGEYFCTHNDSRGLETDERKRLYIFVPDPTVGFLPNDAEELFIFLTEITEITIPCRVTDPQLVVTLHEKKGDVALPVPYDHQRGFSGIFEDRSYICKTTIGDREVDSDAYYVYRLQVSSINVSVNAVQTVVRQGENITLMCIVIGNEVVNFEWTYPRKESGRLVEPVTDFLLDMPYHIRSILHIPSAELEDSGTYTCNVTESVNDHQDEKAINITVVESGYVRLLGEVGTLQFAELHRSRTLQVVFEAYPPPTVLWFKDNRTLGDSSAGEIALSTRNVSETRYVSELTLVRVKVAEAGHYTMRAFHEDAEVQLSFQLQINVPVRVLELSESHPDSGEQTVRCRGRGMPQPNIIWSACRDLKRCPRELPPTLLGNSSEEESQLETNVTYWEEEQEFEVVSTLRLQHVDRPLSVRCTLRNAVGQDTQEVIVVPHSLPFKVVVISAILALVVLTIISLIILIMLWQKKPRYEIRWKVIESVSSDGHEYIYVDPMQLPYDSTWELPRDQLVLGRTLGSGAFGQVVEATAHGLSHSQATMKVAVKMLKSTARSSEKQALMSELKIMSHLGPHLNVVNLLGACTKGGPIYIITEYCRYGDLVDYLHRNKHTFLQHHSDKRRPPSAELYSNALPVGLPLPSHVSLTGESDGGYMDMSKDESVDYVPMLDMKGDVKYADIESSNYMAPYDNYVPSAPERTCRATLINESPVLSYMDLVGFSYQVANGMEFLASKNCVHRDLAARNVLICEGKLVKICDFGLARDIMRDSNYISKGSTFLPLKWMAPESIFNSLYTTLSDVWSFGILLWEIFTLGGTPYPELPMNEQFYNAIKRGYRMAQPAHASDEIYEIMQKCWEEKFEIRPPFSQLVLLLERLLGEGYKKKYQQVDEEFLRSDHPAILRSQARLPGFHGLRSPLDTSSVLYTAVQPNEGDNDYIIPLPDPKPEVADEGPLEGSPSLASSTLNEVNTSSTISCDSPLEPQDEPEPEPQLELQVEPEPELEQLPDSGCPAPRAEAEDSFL
T5 sequence (P17948 27-758): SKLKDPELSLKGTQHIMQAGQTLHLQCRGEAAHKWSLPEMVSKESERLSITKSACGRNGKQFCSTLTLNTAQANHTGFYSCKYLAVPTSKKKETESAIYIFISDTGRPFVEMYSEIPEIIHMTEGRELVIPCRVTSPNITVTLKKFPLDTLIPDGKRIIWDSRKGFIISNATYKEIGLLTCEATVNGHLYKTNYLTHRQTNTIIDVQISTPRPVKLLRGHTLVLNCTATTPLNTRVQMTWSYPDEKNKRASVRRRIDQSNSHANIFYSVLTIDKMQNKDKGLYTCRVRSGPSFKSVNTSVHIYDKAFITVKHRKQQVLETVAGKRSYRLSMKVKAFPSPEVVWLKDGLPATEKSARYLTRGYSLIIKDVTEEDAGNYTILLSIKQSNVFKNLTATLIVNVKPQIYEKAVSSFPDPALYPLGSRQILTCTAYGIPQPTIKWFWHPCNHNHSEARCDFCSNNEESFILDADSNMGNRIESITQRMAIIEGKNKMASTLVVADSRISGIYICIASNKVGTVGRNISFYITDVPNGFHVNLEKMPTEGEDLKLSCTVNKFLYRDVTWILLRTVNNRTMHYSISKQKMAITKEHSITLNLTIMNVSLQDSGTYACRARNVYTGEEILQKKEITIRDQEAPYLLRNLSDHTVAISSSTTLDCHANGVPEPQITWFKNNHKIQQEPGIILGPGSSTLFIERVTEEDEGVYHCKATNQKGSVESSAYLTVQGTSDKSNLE

B1: human PDGF-BB homodimer (ligand, UniProt P01127 82-190, looked up)
chain: SLGSLTIAEPAMIAECKTRTEVFEISRRLIDRTNANFLVWPPCVEVQRCSGCCNNRNVQCRPTQVQLRPVQVRKIEIVRKKPIFKKATVTLEDHLACKCETVAAARPVT
modifications: 125I label on the tracer form
notes: also called labeled PDGF-BB
As to B1, the binding result in test [1] is recorded as “binds”.

B2: truncated human PDGF-CC homodimer, PDGF/VEGF homology domain only (core domain, residues 230-345; recombinant, baculovirus-infected Sf9 cells, C-terminal … (ligand, not shown: small tags and cut ends)
chain: GRKSRVVDLNLLTEEVRLYSCTPRNFSVSIREELKRTDTIFWPGCLLVKRCGGNCACCLHNCNECQCVPSKVTKKYHEVLQLRPKTGVRGLHKSLTDVALEHHEECDCVCRGSTGG
notes: Secreted disulfide-bonded dimer (36 kDa non-reduced, 24 kDa monomer); also called cPDGF-CC; truncated PDGF-C
For B2, the figures for the binding result (in test [2]; with human PDGF beta-receptor) were “binds” and “no binding”, respectively.

B3: truncated human PDGF-C expressed in 293 cells from a mammalian expression plasmid (35S-labelled conditioned medium) (ligand)
chain: GRKSRVVDLNLLTEEVRLYSCTPRNFSVSIREELKRTDTIFWPGCLLVKRCGGNCACCLHNCNECQCVPSKVTKKYHEVLQLRPKTGVRGLHKSLTDVALEHHEECDCVCRGSTGG
notes: also called truncated PDGF-C; radiolabeled PDGF-C
As to B3, the binding result with VEGFR-2-Ig, with VEGFR-3-Ig and with VEGFR-1-Ig was “no binding” throughout.
